Changes are numbered by the printed parent chain. Names and notes keep the numbering of the source.
B1: D3: HDNO D2 plus N414H (E350L/E352D/N414H), SEQ ID NO: 4 (protein)
chain: MVSSKLATPLSIQGEVIYPDDSGFDAIANIWDGRHLQRPSLIARCLSAGDVAKSVRYACDNGLEISVRSGGHNPNGYATNDGGIVLDLRLMNSIHIDTAGSRARIGGGVISGDLVKEAAKFGLAAVTGMHPKVGFCGLALNGGVGFLTPKYGLASDNILGATLVTATGDVIYCSDDERPELFWAVRGAGPNFGVVTEVEVQLYELPRKMLAGFITWAPSVSELAGLLTSLLDALNEMADHIYPSVFVGVDENRAPSVTVCVGHLGGLDIAERDIARLRGLGRTVSDSIAVRSYDEVVALNAEVGSFEDGMSNLWIDREIAMPNARFAEAIAGNLDKFVSEPASGGSVKLLIDGMPFGNPKRTPARHRDAMGVLALAEWSGAAPGSEKYPELARELDAALLRAGVTTSGFGLLNHNSEVTAEMVAEVYKPEVYSRLAAVKREYDPENRFRHNYNIDPEGS
modifications: HDNO D3
B2: N336S: evolved monoamine oxidase (MAO-N) variant N336S (protein, UniProt P46882 1-495, looked up, variant N336S)
Monoamine oxidase N: MTSRDGYQWTPETGLTQGVPSLGVISPPTNIEDTDKDGPWDVIVIGGGYCGLTATRDLTVAGFKTLLLEARDRIGGRSWSSNIDGYPYEMGGTWVHWHQSHVWREITRYKMHNALSPSFNFSRGVNHFQLRTNPTTSTYMTHEAEDELLRSALHKFTNVDGTNGRTVLPFPHDMFYVPEFRKYDEMSYSERIDQIRDELSLNERSSLEAFILLCSGGTLENSSFGEFLHWWAMSGYTYQGCMDCLISYKFKDGQSAFARRFWEEAAGTGRLGYVFGCPVRSVVNERDAARVTARDGREFAAKRLVCTIPLNVLSTIQFSPALSTERISAMQAGHVSMCTKVHAEVDNKDMRSWTGIAYPFNKLCYAIGDGTTPAGNTHLVCFGTDANHIQPDEDVRETLKAVGQLAPGTFGVKRLVFHNWVKDEFAKGAWFFSRPGMVSECLQGLREKHRGVVFANSDWALGWRSFIDGAIEEGTRAARVVLEELGTKREVKARL
B3: N336S/1246M: evolved monoamine oxidase (MAO-N) variant (protein, UniProt P46882 1-495, looked up, variant N336S I246M)
Monoamine oxidase N: B2 Monoamine oxidase N with I246M
B4: D2: 6-hydroxy-D-nicotine oxidase from Arthrobacter nicotinovorans with E350L/E352D, SEQ ID NO: 2 (protein)
chain: B1 chain with H414N
modifications: HDNO D2

Tests used:
[1] = Biotransformation of methylbenzylamine by purified HDNO variants; assay type: biochemical
Protocol: (§1) Chiral normal phase HPLC was performed on an Agilent HPLC system (G1379A degasser, G1312A binary pump, a G1367A well plate autosampler unit, a G1316A temperature-controlled column compartment and a G1315C diode array detector) (Agilent Technologies Inc., Santa Clara, CA) equipped with a CHIRALCEL OD-H (250 mm length, 4.6 mm diameter, 5 μm particle size) analytical column (Daicel Corp., Osaka, Japan). The typical injection volume was 10 μL and chromatograms were monitored at 265 nm. Gas chromatographic (GC) analysis was performed on an Agilent 6850 GC (Agilent Technologies Inc., Santa Clara, CA) with a flame ionization detector and autosampler equipped with a HP-1 column of length 30 m, 0.32 mm inner diameter and 0.25 μm film thickness (Agilent Technologies Inc., Santa Clara, CA).
(§2) A typical 500 μL reaction mixture in a 2 mL tube contained 10 mM amine, 0.05 to 1 mg mL^−1 of purified HDNO variant in pH 8 100 mM NaPi buffer. […] The organic fractions were combined and dried over anhydrous MgSO4 and analysed by GC-FID (conversions) or HPLC (enantiomeric ratios) on a chiral stationary phase (see Chromatography section for details). Turnover frequencies (TOF, min^−1) were calculated as the moles of product formed/moles of enzyme min^−1 based on conversions obtained by GC-FID analysis (see Chromatography method). […]

[2] = Kinetic parameters by HRP-ABTS assay; assay type: biochemical; conditions: oxidation of 2-phenylpyrrolidine, 30° C., pH 8
Protocol: Kinetic parameters of different HDNO variants were determined using the ABTS-HRP assay. Samples of 20 μL of substrate at different concentrations in DMSO (0.05 mM-10 mM, 10% DMSO final concentration) was diluted in 130 μL of reacting solution which contained 0.2 mg ml^−1 HRP (IV, Sigma) and 0.4 mg ml^−1 ABTS in 100 mM pH 8 NaPi buffer. The assay was started by adding 50 μL purified enzyme (typically 0.1-2 mg ml^−1 concentration). Production of the reduced ABTS was measured using a Tecan infinite M200 microplate reader (Tecan Group Limited, Mannedorf, Switzerland) at 420 nm (E=36 mM^−1 cm^−1) and 30° C. for 10 min. Measurements were made in triplicate and a 1:1 ratio for the oxidation of substrate to the production of hydrogen peroxide was assumed. Rate was plotted against substrate concentration and Vmax and KM values extracted using non-linear regression analysis with a fit to the Michaelis-Menten equation using Prism software (GraphPad Software, San Diego, CA). Protein concentrations for kinetic parameters were determined using the Bradford assay following supplier's instructions using bovine serum albumin (BSA) standards for calibration (Merck Life Science UK Limited, Gillingham).

[3] = Thermal stability: residual activity after incubation at 45° C. or 50° C. (GC); assay type: physicochemical; conditions: 60 min
Protocol: A subset of mutants was selected and inserted into the HDNO D3 and D6 variants by site directed mutagenesis either alone or in pairs to also check for interactions that would further stabilise the enzyme. Namely, D3-K208E, D6-K208E, D6-R207E, D6-K282E, D6-K428E and D6-K208E/K282E mutant proteins were expressed and purified (as described below) and incubated at elevated temperatures (45° C. or 50° C. for 1 h for D6 variants) using a constant temperature water bath incubator. Aliquots were taken every 15 min and activities were measured by biotransformation and gas chromatography (as described below). The % residual activity corresponds to the ratio between the activity observed after incubation at each specified time over the activity of the enzyme without any thermal treatment.
as §2

[4] = Biotransformation of PPY by purified HDNO variants (GC-FID, chiral HPLC); assay type: biochemical; conditions: for rate / activity increase towards PPY oxidation versus HDNO D2: biotransformation measurements
Protocol: as §1
A typical 500 μL reaction mixture in a 2 mL tube contained 10 mM amine, 0.05 to 1 mg mL^−1 of purified HDNO variant in pH 8 100 mM NaPi buffer. Reactions were incubated at 30° C. with 250 r.p.m shaking for different reaction times, after which they were quenched by the addition of 50 μL of 10 M NaOH and extracted twice with 500 μL tert-butyl methyl ether (HPLC grade, Merck Life Science UK Limited, Gillingham). The organic fractions were combined and dried over anhydrous MgSO4 and analysed by GC-FID (conversions) or HPLC (enantiomeric ratios) on a chiral stationary phase (see Chromatography section for details). Turnover frequencies (TOF, min^−1) were calculated as the moles of product formed/moles of enzyme min^−1 based on conversions obtained by GC-FID analysis (see Chromatography method). The same response factor was considered for both substrate and product.

[5] = MAO-N variants, (S)-enantiomer of PPY, ref [104]; cited from earlier work

Molecule | Km [2] | kcat [2] | reported kcat [5] | further results
B1 | 490 ± 140 µM | 0.71 ± 0.05 s⁻¹ | – | activity to methylbenzylamine lower than in HDNO D6 [1]: about 20%; residual activity [3]: 62%; rate / activity increase towards PPY oxidation versus HDNO D2 ([4]; listed as 6-HDNO D3): 1.7 fold; rate / activity increase towards PPY oxidation versus HDNO D2 ([4]; listed as HDNO D3): almost twofold increase; enantioselectivity of PPY oxidation ([4]; chiral HPLC): completely selective towards the oxidation of the (R)-enantiomer
B2 | – | – | 2.50 s⁻¹ | –
B3 | – | – | 2.13 s⁻¹ | –
B4 | 1060 ± 440 µM | 0.50 ± 0.06 s⁻¹ | – | –

From patent US20240282401A1, “METHODS FOR ENZYME ENGINEERING” (The University of Manchester, priority 2021, published 2024)
